Experimental data: patent publication US20220153793A1 (SINAI HEALTH SYSTEM, published 2022)

Key:
CIP2A (endogenous) = CIP2A (endogenous) (human, UniProt Q8TCG1 1-905); test: LacR/LacO assay in U2OS lacO256 cells, endogenous CIP2A at the lacO array
Protocol: 1.8×10⁵ cells were seeded in 6-well plates containing glass coverslips. […] Cells were fixed with 4% PFA 48 h after transfection and stained for immunofluorescence. […] After 0.1 mg/mL nourseothricin selection and cell expansion, 2×10⁵ cells were seeded in 6-well plates. […] 24 h later, cells were seeded in a 96-well plate (˜20,000 cells per well), cultured for 24 h and fixed with 2% PFA and stained for immunofluorescence. Images were acquired on an IN Cell Analyzer 6000 automated microscope (GE Life Sciences) with a 60× objective.

GST-CIP2A (1-560) = biological target: T1, GST-CIP2A (1-560) (human, UniProt Q8TCG1 1-560); test: GST pull-down with bacterially produced proteins on glutathione resin, immunoblot anti-MBP
T1 construct: Expressed in Escherichia coli and coupled to glutathione sepharose 4B; not shown: Glutathione S-transferase tag of vector pGEX4T1
Protocol: MBP and GST proteins expressed in Escherichia coli were purified on amylose (New England Biolabs) or glutathione sepharose 4B (GE Healthcare) resins according to the batch method described by the manufacturer and stored in 20 mM Tris-HCl pH 8.0, 150 mM NaCl, 1 mM DTT, 5% glycerol. […] Beads were extensively washed prior to analysis by immunoblotting.

Binder	binding result (CIP2A (endogenous))	binding result (GST-CIP2A (1-560))
mCherry-LacR-TOPBP1 3A (other, also called Flag-LacR-TOPBP1^3A; not shown: The mCherry-LacR carrier (Flag-LacR in the legend and methods) and its linker) MSRNDKEPFFVKFLKSSDNSKCFFKALESIKEFQSEEYLQIITEEEALKIKENDRSLYICDPFSGVVFDHLKKLGCRIVGPQVVIFCMHHQRCVPRAEHPVYNMVMSDVTISCTSLEKEKREEVHKYVQMMGGRVYRDLNVSVTHLIAGEVGSKKYLVAANLKKPILLPSWIKTLWEKSQEKKITRYTDINMEDFKCPIFLGCIICVTGLCGLDRKEVQQLTVKHGGQYMGQLKMNECTHLIVQEPKGQKYECAKRWNVHCVTTQWFFDSIEKGFCQDESIYKTEPRPEAKTMPNSSTPTSQINTIDSRTLSDVSNISNINASCVSESICNSLNSKLEPTLENLENLDVSAFQAPEDLLDGCRIYLCGFSGRKLDKLRRLINSGGGVRFNQLNEDVTHVIVGDYDDELKQFWNKSAHRPHVVGAKWLLECFSKGYMLSEEPYIHANYQPVEIPVSHKPESKAALLKKKNSSFSKKDFAPSEKHEQADEDLLSQYENGSSTVVEAKTSEARPFNDSTHAEPLNDSTHISLQEENQSSVSHCVPDVSTITEEGLFSQKSFLVLGFSNENESNIANIIKENAGKIMSLLSRTVADYAVVPLLGCEVEATVGEVVTNTWLVTCIDYQTLFDPKSNPLFTPVPVMTGMTPLEDCVISFSQCAGAEKESLTFLANLLGASVQEYFVRKSNAKKGMFASTHLILKERGGSKYEAAKKWNLPAVTIAWLLETARTGKRADESHFLIENSTKEERSLETEITNGINLNSDTAEHPGTRLQTHRKTVVTPLDMNRFQSKAFRAVVSQHARQVAASPAVGQPLQKEPSLHLDTPSKFLSKDKLFKPSAAAKDALAALETPGRPSQQKRKPSTPLSEVIVKNLQLALANSSRNAVALSASPQLKEAQSEKEEAPKPLHKVVVCVSKKLSKKQSELNGIAASLGADYRWSFDETVTHFIYQGRPNDTNREYKSVKERGVHIVSEHWLLDCAQECKHLPESLYPHTYNPKMSLDISAVQDGRLCNSRLLSAVSSTKDDEPDPLILEENDVDNMATNNKESAPSNGSGKNDSKGVLTQTLEMRENFQKQLQEIMSATSIVKPQGQRTSLSRSGCNSASSTPDSTRSARSGRSRVLEALRQSRQTVPDVNTEPSQNEQIIWDDPTAREERARLASNLQWPSCPTQYSELQVDIQNLEDSPFQKPLHDSEIAKQAVCDPGNIRVTEAPKHPISEELETPIKDSHLIPTPQAPSIAFPLANPPVAPHPREKIITIEETHEELKKQYIFQLSSLNPQERIDYCHLIEKLGGLVIEKQCFDPTCTHIVVGHPLRNEKYLASVAAGKWVLHRSYLEACRTAGHFVQEEDYEWGSSSILDVLTGINVQQRRLALAAMRWRKKIQQRQESGIVEGAFSGWKVILHVDQSREAGFKRLLQSGGAKVLPGHSVPLFKEATHLFSDLNKLKPDDSGVNIAEAAAQNVYCLRTEYIADYLMQESPPHVENYCLPEAISFIQNNKELGTGLSQKRKAPTEKNKIKRPRVH	no binding	
MBP-TOPBP1756-999-3A (other, not shown: large carriers) LNSDTAEHPGTRLQTHRKTVVTPLDMNRFQSKAFRAVVSQHARQVAASPAVGQPLQKEPSLHLDTPSKFLSKDKLFKPSAAAKDALAALETPGRPSQQKRKPSTPLSEVIVKNLQLALANSSRNAVALSASPQLKEAQSEKEEAPKPLHKVVVCVSKKLSKKQSELNGIAASLGADYRWSFDETVTHFIYQGRPNDTNREYKSVKERGVHIVSEHWLLDCAQECKHLPESLYPHTYNPKMSLDI		no binding
